Experimental findings from patent US20240092922A1 (EUCURE BEIJING BIOPHARMA, published 2024) are described below.

The labels stand for the following.
T1: monkey (Rhesus macaque) 4-1BB (r4-1BB) on transfected CHO cells (monkey (Rhesus macaque), UniProt Q07011 24-255 (human entry))
T1 construct: also called rm4-1BB; CHO-r4-1BB
T1 chain: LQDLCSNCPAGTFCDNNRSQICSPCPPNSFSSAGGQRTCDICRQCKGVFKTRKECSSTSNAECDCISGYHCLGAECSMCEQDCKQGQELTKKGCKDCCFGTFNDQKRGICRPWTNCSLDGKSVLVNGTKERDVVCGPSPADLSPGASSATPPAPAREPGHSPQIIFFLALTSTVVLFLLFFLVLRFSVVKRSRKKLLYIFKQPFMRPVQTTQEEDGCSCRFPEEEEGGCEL

B1: 54-8B11 (antibody, V domains shown)
VH: QIQLVQSGPELKKPGETVKISCKASKFTFTNYGMNWVKQAPGKALKWMGWINTYTGEPTYADDFKGRFDFSLETSATTAYLQINNLKNEDTATYFCARREYYPWVFVYWGQGTLVTVSA
VL: ENVLTQSPAIMSASPGEKVTMTCSASSSVSYMHWYQQKSSTSPKLWIYDTSKLASGVPGRFSGSGSGNSYSLTISSMEAEDVATYYCFQGSGYPLTFGGGTKLEIK
notes: mouse antibody purified from ascites
B2: 45-7G9 (antibody, V domains shown)
VH: QVQLQQPGSALVRPGASVKLSCKASGYTFSNYWIHWVKQRHGQGLEWIGNIYPASDYTNYDEKFKNKGTLTVDTSSSTAYMHLSSLTSEDSAVYYCSRGYFGSLDYWGQGTSVTVSA
VL: DILLTQSPAILSVNPGERVSFSCRASQPIGTGIHWYQQRTNGSPRLLIKSASESISGIPSRFSGSGSGTDFTLTINNVESDDVGDYYCQQSYSWPTTFGGGTKLKIN
notes: as for B1
B3: 70-6F10 (antibody, V domains shown)
VH: QVQLQQSGPELVKPGASVKISCKASGYAFNNSWMNWVKQRPGQGLEWIGRIYPGDGDTDYNGKFKGKATLTADKSSSTAYMQLSSLTSVDSAVYFCARLDGNYYYWYFDVWGAGTTVTVSS
VL: not shown
notes: as for B1
B4: 55-8F6 (antibody, V domains shown)
VH: QVQLQQPGAELVRPGASVKLSCKASGYIFTSYWINWVKQRPGQGLEWIGNIYPSDSYTNYNQKFKDKATLTVDKSSSTAYMQLSSPTSEDSAVYYCTRFHYGSSPFDNWGQGTTLTVSS
VL: DIQMTQSTSSLSASLGDRVTISCRASQDISHYLNWYQQKPDGTVKLLIYYTSRLHSGVPSRFSGSGSGTDYSLTISNLEQEDFATYFCQQGHTLPRTFGGGTKLEIK
notes: as for B1
B5: 45-8E2 (antibody, V domains shown)
VH: EVKLLESGGGLVQPGGSLKLSCAASGFDFSRYWMSWVRQAPGKGLEWIGEIHPDSSAINYTPSLKDKFIISRDNAKNTLYLQMSKVRSEDTALYYCARSYYGRVFDYWGQGTTLTVSS
VL: DIVMTQSPATLSVTPGDRVSLSCRASQSISDYLHWYQQKSHESPRLLIKYASQSISGIPPRFSGSGSGSDFTLSINSVEPEDVGMYYCQDGHSFPPTFGAGTKLELK
notes: as for B1
B6: 69-3C2 (antibody, V domains shown)
VH: DVQLVESGGGLVQPGGSRKLSCAASGFSFSSFGMHWMRQAPEKGLEWVAYISSGSSAIYYADTVKGRFTISRDNPKNTLFLQMTSLRSEDTAMYYCARDWVDYWGQGTTLTVSS
VL: DIQMTQSPASLSVSVGETVTITCRASENIYSNLVWYQQKQGKSPQLLVYTATKLTNGVPSRFSGSGSGTQYSLKINSLQSEDFGTYYCQHFWDTPYTFGGGTKLEMK
notes: as for B1
B7: 61-6A7 (antibody, V domains shown)
VH: EVQLQQSGAELVRPGALVKLSCKASGFNIKDYYMHWVKRRPEQGLEWIGWIDPENGNTIYDPKFQDKASITADTSSNTAYLQLSSLTSEDTAVYYCAEGLPWYFDYWGQGTTLTVSS
VL: QIILTQSPALMSASPGEKVTMTCSASSSVSDMNWYQQKPRSSPTPWIYLTSNLSSGVPDRFSGSGSGTSYSLTISSMEAEDAATYYCQQWSGNPLTFGAGTRLELK
notes: as for B1
B8: 45-7E9 (antibody, V domains shown)
VH: QVQLKQSGPGLVQPSQSLSITCTVSGFSLTTYGVHWVRQPPGKGLEWLGVIWSDGNTDYNDAFISRLSITKDNSTSQVFFKMNGLQADDTAIYYCARNSITSVSFDCWGQGTTLTVSS
VL: DIVMTQSQKFMSTSVGDRVSVTCKASQNVGTTVAWYQQRPGQSPKALICSASYRYSGVPDRFTGSGSGTDFTLTISNVQSEDLAEYFCQQYNSYPLTFGSGTKLEIK
notes: as for B1
B9: 70-3F9 (antibody, V domains shown)
VH: QVQLQQPGAELVRPGASVKLSCKASGYTFTSYWINWVKQRPGQGLEWIGNIFPSDSYTNYNQKFKDRAKLTVDKSSSTAYMQLSSPTSEDSAVYYCTRFGSSGYPDYYTMEYWGQGTSVTVSS
VL: DIQMTQSPASLSASVGETVTITCRASGNIDNYLAWYQQKQGKSPQLLVYNAKTLAEGVPSRFSGSGSGTEYSLKINSLQPEDFGSYHCQQYWTIPYTFGGGTKLEIK
notes: as for B1
B10: 30-5F9 (antibody, V domains shown)
VH: QVQLKESGPGLVAPSQSLSITCTVSGFSLTTYDISWVRQPPGKGLEWLGVIWTGGGTNYNSSFMSRLSISKDNSKNQVFLKMNSLQVDDTAIYYCERVDYWGQGTTLTVSS
VL: DVVMTQTPLSLPVSLGDQASISCRSSQSLVHSNGNTYLHWYLQKPGQSPKLLIYKVSNRFSGVPDRFSGSGSGTAFTFKISRVEAEDLGVYFCSQNTHVPWTFGGGTKLEIK
notes: as for B1

For one experiment, the target named is T2, mouse 4-1BB (m4-1BB) on transfected CHO cells (mouse, UniProt P20334 24-256).
T2 construct: also called CHO-m4-1BB
Put plainly: flow cytometry on CHO cells transfected with mouse 4-1BB. For orientation: Flow cytometry measures light scatter and fluorescence of single cells or particles in a stream.
Protocol: (§1) 25 μl CHO cells were added to each well. 25 μl purified anti-h4-1BB antibodies (1 μg/ml) were added to each well and were incubated at 4° C. for 30 minutes.
(§2) After being washed with PBS (1200 rmp, 5 min) twice, 50 μl of FITC labeled anti-mouse IgG Fc antibody (anti-mIgG Fc-FITC) was added into each well at 1:100 dilution, followed by incubating at 4° C. for 30 minutes, and then PBS wash (1200 rmp, 5 min). In some cases, PE labeled anti-mouse IgG Fc antibody (anti-mIgG Fc-PE) was used to label the antibody instead, and was added into each tested well at 1:500 dilution. The signals for FITC and PE were determined by flow cytometry.
For the molecule B1, the binding result is “no binding (tested: 1 µg/ml)”.
As to B2, the binding result was “no binding (tested: 1 µg/ml)”.
Take B3: the binding result is given as “no binding (tested: 1 µg/ml)”.
For the molecule B4, the binding result was “no binding (tested: 1 µg/ml)”.
Regarding B5, the binding result was “no binding (tested: 1 µg/ml)”.
Take B6: the binding result is recorded as “no binding (tested: 1 µg/ml)”.
B7: the binding result is given as “no binding (tested: 1 µg/ml)”.
Regarding B8, the binding result is on record as “no binding (tested: 1 µg/ml)”.
For B9, the binding result was “no binding (tested: 1 µg/ml)”.

A further experiment deals with T3, chimeric (mouse and human) 4-1BB (c4-1BB) on transfected CHO cells (chimeric (mouse and human)).
T3 construct: also called chi4-1BB; CHO-c4-1BB
Briefly: flow cytometry on transfected CHO cells.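 Note: antibodies tested at 1 µg/ml on CHO cells for 30 min at 4 °C, binding detected with FITC- or PE-labeled anti-mouse IgG Fc secondary by flow cytometry.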
Protocol: as §1, §2
For B1, the binding result is “binds”.
For B2, the binding result is reported as “binds”.
The same measure, in the same setting: then B3, with “binds”; and B4, with “binds”.
In the case of B5, the binding result is “binds”.
For B6, the binding result is “binds”.
Still for that read-out and setting: then B7, with “binds”; and B8, with “binds”; and B9, with “binds”.

For another experiment, the target named is T1, monkey (Rhesus macaque) 4-1BB (r4-1BB) …. Put plainly: flow cytometry on transfected CHO cells.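 Note: antibodies tested at 1 µg/ml on CHO cells for 30 min at 4 °C, binding detected with FITC- or PE-labeled anti-mouse IgG Fc secondary by flow cytometry.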
Protocol: as §1, §2
For B1, the binding result was “binds”.
On to B2, for which the binding result is reported as “binds”.
On to B3, for which the binding result is “binds”.
Take B4: the binding result was “binds”.
Regarding B5, the binding result is on record as “binds”.
Turning to B6, the binding result is on record as “binds”.
For B7, the binding result is “binds”.
Regarding B8, the binding result is “binds”.
For the molecule B9, the binding result is recorded as “binds”.

A further experiment deals with T4, human 4-1BB (h4-1BB) on transiently transfected CHO cells (human, UniProt Q07011 24-255).
T4 construct: also called TNFRSF9; CD137
Put plainly: flow cytometry, CHO cells transfected with human 4-1BB, antibody at 1 µg/ml.
Protocol: (§3) 25 μl CHO cells transiently transfected with human 4-1BB were added to each well in a plate. The purified antibodies were titrated to final concentrations of 10, 1, 0.1, 0.01, 0.001 μg/ml. The titrated antibodies were added to each well at 4° C. and incubated for 30 minutes.
(§4) After being washed with phosphate-buffered saline (PBS) (1200 rpm, 5 minutes) twice, 50 μl of FITC labeled anti-mouse IgG Fc antibody (anti-mIgG Fc-FITC) at 1:100 dilution was added into each well, and incubated for 30 minutes at 4° C., followed by PBS wash (1200 rpm, 5 minutes). The signal for FITC was detected by flow cytometry.
Take B1: the “percentage of cells with FITC signal” value amounted to 45%.
The same measure, in the same setting: in the case of B2 it was 55.1%; in that of B3, 23.7%; in that of B4, 52.3%.
As for B10, the “percentage of cells with FITC signal” value was determined as 56.2%.
Turning to B5, the “percentage of cells with FITC signal” value was determined as 60.1%.
Same read-out and setting: in the case of B6 it was 62.9%; in that of B7, 60.1%.
In the case of B8, the “percentage of cells with FITC signal” value was determined as 58.4%.
As to B9, the “percentage of cells with FITC signal” value was determined as 56.4%.

The next experiment addresses T4, human 4-1BB (h4-1BB) on transiently …. Put plainly: flow cytometry, CHO cells transfected with human 4-1BB, antibody at 0.001 µg/ml.
Protocol: as §3, §4
As for B1, the “percentage of cells with FITC signal” value was 0.111%.
The same measure, in the same setting: in the case of B2 it was 1%; in that of B3, 0.962%.
As for B4, the “percentage of cells with FITC signal” value came to 0.375%.
Turning to B10, the “percentage of cells with FITC signal” value was 0.802%.
In the case of B5, the “percentage of cells with FITC signal” value is 1.52%.
With B6, the “percentage of cells with FITC signal” value is 0.183%.
As to B7, the “percentage of cells with FITC signal” value came to 3.43%.
Turning to B8, the “percentage of cells with FITC signal” value is 0.703%.
B9: the “percentage of cells with FITC signal” value came out at 1.25%.

The next experiment has the same target. Put plainly: flow cytometry, CHO cells transfected with human 4-1BB, antibody at 0.1 µg/ml.
Protocol: as §3, §4
As for B1, the “percentage of cells with FITC signal” value was determined as 16.5%.
Consider B2, for which the “percentage of cells with FITC signal” value was found to be 25.9%.
B3: the “percentage of cells with FITC signal” value was found to be 1.14%.
On to B4, for which the “percentage of cells with FITC signal” value was 36.1%.
Turning to B10, the “percentage of cells with FITC signal” value came out at 25.3%.
Regarding B5, the “percentage of cells with FITC signal” value was found to be 49.8%.
Same read-out and setting: then B6, with 52.3%; and B7, with 51.1%; and B8, with 50%.
B9: the “percentage of cells with FITC signal” value turned out to be 9.06%.

Another experiment has the same target. Put plainly: flow cytometry, CHO cells transfected with human 4-1BB, antibody at 0.01 µg/ml.
Protocol: as §3, §4
For the molecule B1, the “percentage of cells with FITC signal” value turned out to be 0.445%.
For B2, the “percentage of cells with FITC signal” value turned out to be 0.96%.
As for B3, the “percentage of cells with FITC signal” value stood at 0.913%.
On the same count and under the same terms, in the case of B4 it was 0.571%; in that of B10, 0.72%; in that of B5, 9.06%.
Still for that read-out and setting: in the case of B6 it was 26.2%; in that of B7, 17%; in that of B8, 12.7%.
B9: the “percentage of cells with FITC signal” value stood at 3.37%.

The target is the same in the next experiment. Briefly: flow cytometry, CHO cells transfected with human 4-1BB, antibody at 10 µg/ml.
Protocol: as §3, §4
On to B1, for which the “percentage of cells with FITC signal” value was 49.8%.
Turning to B2, the “percentage of cells with FITC signal” value is 57.9%.
The same measure, in the same setting: then B3, with 52.9%; and B4, with 53.6%.
For B10, the “percentage of cells with FITC signal” value amounted to 68.9%.
As for B5, the “percentage of cells with FITC signal” value is 58.9%.
With B6, the “percentage of cells with FITC signal” value was 58.5%.
For B7, the “percentage of cells with FITC signal” value worked out at 63%.
Turning to B8, the “percentage of cells with FITC signal” value is 57.6%.
For the molecule B9, the “percentage of cells with FITC signal” value stood at 56.7%.

The target in a further experiment is T2, mouse 4-1BB (m4-1BB) on transfected CHO …. Put plainly: flow cytometry on CHO-m4-1BB cells, anti-mouse-IgG-Fc-FITC (1:100).
Protocol: as §1, §2
On to B10, for which the binding result is reported as “no binding (tested: 1 µg/ml)”.
